Measurements from IntAct's records for PubMed 22405203.

B1: Hypoxia-inducible factor prolyl hydroxylase (Caenorhabditis elegans), G5EBV0 (parent)
chain: MSSAPNDDCEIDKGTPSTASLFTTLMLSQPSSSTAVLQCTYCGSSCTSSQLQTCLFCGTVAYCSKEHQQLDWLTHKMICKSLQTSGMVPSNLMPQAAPAVMAPIPPTVSFDDPALTTSLLLSLQNNPILNQTISNFPPTFSITSKTEPEPSIPIQIPQRISSTSTVPFSSEGSAFKPYRNTHVFNSISSESMSSMCTSHEASLEHMSSASLAMFPTSSTAQSDISRLAQVLSLAGDSPASLALVTTSVPSTASTATIPPPATTTSSATSSGKSETITVGKEKIIQTDDPDIQIIETEGGSKPTVSRTRKRPTPSNSADPKINYKDHNKNVVYSTTLQEHQKHLQNRGLALSIHQAMVLRLRYIAEHVIRSLNEFGWAVVDNFLGSDHYKFTAKEIERLYERGLFSPGQLMEAKHKDEFHIKDIRSDHIYWYDGYDGRAKDAATVRLLISMIDSVIQHFKKRIDHDIGGRSRAMLAIYPGNGTRYVKHVDNPVKDGRCITTIYYCNENWDMATDGGTLRLYPETSMTPMDIDPRADRLVFFWSDRRNPHEVMPVFRHRFAITIWYMDKSERDKALAKGKESDAACASKKENDPTSSSLNSLIGSLLRPRKNPSTHDLSKLDLRLFPSTSSDPALVSAADEDRVDISADFQSTSSLAHPESTDSGVSLSTFNVAHNHMERTTSLQSISDHFRSERSHERRSSTSSDQDLDEGLPPPPSTNPEYYI
partner: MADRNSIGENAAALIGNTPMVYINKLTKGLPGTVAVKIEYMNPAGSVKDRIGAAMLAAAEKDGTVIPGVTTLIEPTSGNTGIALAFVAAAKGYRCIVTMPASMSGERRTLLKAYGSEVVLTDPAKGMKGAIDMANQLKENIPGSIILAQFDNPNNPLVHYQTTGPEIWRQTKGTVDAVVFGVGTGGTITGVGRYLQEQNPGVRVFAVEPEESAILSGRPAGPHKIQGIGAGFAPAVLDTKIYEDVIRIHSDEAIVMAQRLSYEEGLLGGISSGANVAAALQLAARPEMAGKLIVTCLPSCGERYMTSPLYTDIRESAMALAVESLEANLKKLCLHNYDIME

Variants of: B1
Settings: with cysk1_caeel cysl-1, Q93244
E720K was tested, and the “effect of a mutation on the interaction” value was “disrupting interaction strength”.

Variants of: B1
Settings: with cysk1_caeel cysl-1, Q93244
Remark: another data set of the same source
For E720K, the “effect of a mutation on the interaction” value was “decreasing interaction strength”.
For I723A, the “effect of a mutation on the interaction” value was “decreasing interaction strength”.
